One may read the stoichiometry N as a count of units in the complex or per binding partner.

For experiment [1], the target named is AAV8 capsid (adeno-associated virus serotype 8 capsid) (adeno-associated virus serotype 8 (AAV8)) (UniProt Q8JQF8). Briefly: native MS; orbitrap-based charge detection-mass spectrometry (CD-MS) of nSEC fraction F2 (capsid dimers), infused by CE with sheath liquid interface at about 80 nL/min, 200 mM ammonium acetate, nano ESI, triplicates.
Experiment [2] shares this target. Description: SEC-MALS; offline native SEC (AdvanceBio SEC 300 x 7.8 mm, 2.7 um, 500 A) with 20-angle MALS and DAD at 260 and 280 nm; 1:1 (v/v) mixture of empty and full AAV8 capsids; 200 mM ammonium acetate, 1.0 mL/min, 6 replicates; capsid dimer against capsid monomer by peak area. In general terms: Size exclusion chromatography separates by hydrodynamic size, large species first.

In experiment [1], “AAV8 capsid (adeno-associated virus serotype 8 capsid) (from UniProt Q8JQF8 1-738) (complex)” gave a % empty capsid dimers (CD-MS) of 1%, a % filled capsid dimers (CD-MS) of 3% and a stoichiometry N of 2. In addition, in experiment [2], the % AAV8 capsid dimer (peak area, absorbance at 260 nm) worked out at 0.9%; the % AAV8 capsid dimer (peak area, absorbance at 280 nm) was 1%; the stoichiometry N turned out to be 2.

For the origin of these results see publication PMC12333375.
